Test results from the domain aggregation screens of Martell et al. (2025).

Assay: soluble fraction after stress (log2 fold change); higher = more stays soluble; pooled small domains, quantitative proteomics
Conditions: stress: pH 4
How it was run: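 Custom libraries of small protein domains were pooled and measured with high-throughput quantitative proteomics after pH 4 stress. The read-out is the fold change in the amount of each domain that stays soluble after the acid stress, taken as a measure of aggregation propensity. Fold changes are on a log2 scale, and higher values mean more of the domain stayed soluble.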

Row | Sequence | soluble fraction (log2)
1 | HMGPPAVGAKLQVLRQARKLSLDELSRRAGVSKSMLSQVERNLANPTVAVLWRLATALGVGLADFLSP | -0.524
2 | HMVSQKPKERELWFREQLELAGLRLDPHAISAINETLGNDTGRFPGIIDTLLSTYGAGKKLSYDDVVMFL | -1.8
3 | HMTTIFDNINGELRRRHLTQQDLAKTIEIDRRTWSKWQDKNDMPASVLLQIAKWLNVTLDYLTRD | 0.0559
4 | HMFHGEGVQANNIQAYIVLKMAAVNGAEDALDTADEVSEKMSREDLETATQVLGQIFRKYLMELQSA | -1.12
5 | HMIQMRVKVPKNIAGGSLMGAHHFVKSALARTNPGGSTSNYKIQATDGTPLTLGDLTARQYDEVLIISG | -0.617
6 | HMTIAFPSNDVDAVVGYFESRGFDRTASISTATVILQQAKIDGVKVFELIDTLQGMDKVQLSYIVTEILN | -0.0582
7 | HMKIDLKQIEGVLDELAKVKGSLITILQKTQETYGYLPKEAIIYISERTGIAESEIMGVATFYTQFRL | -0.779
8 | HMLKSGSAVAQARDVILEKGVPVHINEILDALGKGDTREAKASLTSSLAAYVRRGEIFTRPAPNTFGLVEL | -0.378
9 | HMDNEIRIPLPSLQRDGFSIGTREDDGSQLVRIMSAGSFGGMIRSFRLPEGMRIEGAKWEGEIVSIRL | -0.0291
10 | HMYEVVPNMKGLSYEQAATALRTAGLEPELSDSIYDDKTRPGTVLEQSPRANTKVKPGRTVYLTVNAF | 0.105
11 | HMTNVNSLIGKKAIVIQDIDNLKSTGQVKIGGEIWSAQSESNDIISKDTEVEIVKIDGVKLIVRLVPV | 0.225
12 | HMKSLVDLEISIVKKDMNYFVLPKINGEPLLMERISASEYKDFQLGKLSKEDIFQKHYPDYSEENIKNGRG | 0.19
13 | HMLVSPLDEIPGIGRNRKKTLLNHFGSAKTIEGASLEDLKKVDGISELIAKKIYNYFHLNKNF | 0.104
14 | HMNVAETITLGKRLFNHALTILGKKQRNISRKQLKNFLNDLGLKDSKDLYESIGTGDKNPILMAQLLLG | -0.0687
15 | HMATIADILAEHKDKEGPLLPVLHDVQKMFGHVSEEAMREIAQALNLTRAEVYGVVSFYHDFRKEVE | -1.19
16 | HMTSNSLNLKDEISAFLTKNAGISYSAERIAHALNMDNADQFTPIIQTLAQLEREKKVRVTDKGEFEAVIK | 0.229
17 | HMLSKGDRVSWDTPQGRTQGEVVEKKTKDFEHDGQKFTASDDDPAFIVKSEKSGAEAAHKGSALNK | -0.0554
18 | HMHVYSYPAAVKIKNAVGREMMVTLLGRSGTHVQFARQDGEEFVYPISSLDLAAQTLISKYPNDGIKN | 0.0689
19 | HMVSTDPVHLFNLGTANRRAGRASEAITSYRKFMEAAPQHPQVPEARAYIHDMEVLLQERQKSEQAASQLS | -0.0261

Row | Sequence | soluble fraction (log2)
20 | HMSGHEVMVQRITAIIAELYQYGFVSRKKMMDEFNISERTLYRDLNRLGDRIVPDGDGIYRLAPAYA | -0.954
21 | HMKGLDAAVVDLFKSKGASIVFAGNRLSLSGEVADQATKDELLAKAKAILASLGASVSLDDKLMVKGAKAS | 0.175
22 | HMEAEMLYQVKVKITNLVIRSGAGAIYPIVKRYASGVLPIYEEKNGYGKIAVGQWISLSPEFVERVD | -0.0106
23 | HMFVEEGSLKKITFDTYEFNITDNLKSLRVTYQGLLPNLFREGQGVVIEGILLEQNYIQANTVF | -0.328
24 | HMYSLGPKERSIVSFIANRPGSRSGQIAKSLQIPLPTIKRILNGLVENKVIARHGIGAGTNYVVEDQA | 0.0323
25 | HMLIPTISVTKEGQLRFENIPVSWEELGTRLRDVSDLDKIKIYADAESDALTISEIMKTAANVGIVQFVLV | -1.13
26 | HMKDVVAPMSGRVVRLMVAAGDEVVKRQALVVVEAMKMENVLTAPKEGRIKKVPVREGMTVEVGQTLVSFE | -0.274
27 | HMKPGTIVTGVVVDIKSDVVVVNAGLKSEGIVPIEQFRNDRGELEVAIGDEVKVALDSLENGFGETVLSRE | -1.21
28 | HMKRTMVEAAMVAKLFNLTVRRIQQLTQDGVLTTELVDKKRRYDLLLTVQKYIAYLQEKVAK | ≥ 0.43
29 | HMVIGKHSGSHTLVNDLAKRGITLDKEESATLLEMVRKAAVGLHRSISSDELYGLYKDMKSGQDPFEDS | 0.14
30 | HMTPTITNALEEAEKAVSEVQEGKKEIELTPQGAYIRHLQHAIADRYGISSTSTGRDPKRKVIIY | -0.437
31 | HMIIENIVVEIKGEVYNPGLYILEQGSRINDLIELSGGFTKDANGTDLNLAKVLSDGEVIIVSKKG | -1.35
32 | HMKSISMSKLRHLLQLYVQGRSKKLISEQTGIARNTLKKYIKEFSEAGLSLEALLALSDKELEDLFVK | 0.282
33 | HMDDFVEIDGKKYEIDMSFDNILRLFDLLKDKSLNDVTKIETGLIMLIDDSLDDYDTEEKADIFVQIF | 0.22
34 | HMPLNRFLNLPHEDKERVLLIAKKQFSTHGYDAMSLNLLLKELDISKGQFYYWFEDKADLFFTVL | 0.0543
35 | HMPSEAVQNIIGNVKSKRRVATIGQARGLASNVIKEGKFDNVSNTAMVNRLIDLGIISNSIGYQ | 0.283
36 | HMGLDQNTLDRVDDINDTLATGIEIGPETRGTIEELNETLANGLKAGFDEETLARVDELLRVVEDGLK | -1.15
37 | HMESILDDFPGLGEKRKKALLEHFGSISKIKAATVGQLREVDGIGFETAAALREFLDANFPA | 0.0668
